We go through two molecules from patent US20220098304A1 (JIANGSU HENGRUI MEDICINE, published 2022).

The EC50 is the midpoint of the concentration-response curve. The term Kd denotes the free concentration of one partner at which half of the binding sites on the other are occupied at equilibrium, for simple one-to-one binding. For orientation: koff means the rate constant with which the complex falls apart. As a reminder, the kon is the rate constant with which the complex forms. As a reminder, the IC50 is the concentration that inhibits the measured activity by half.

Test [1] has as its target T1, Human PD-1-His protein (Cat. #10377H08H, Sino Biological) (human, UniProt Q15116 25-167).
T1 construct: Bought protein; also called hPD-1-His; hu PD-1-his; not shown: His tag of the bought protein
As to the kind of experiment: ELISA, PD-1-His coated, HRP anti-human IgG detection. On the technique in general: In an ELISA, binding on a coated surface is turned into a signal by an enzyme label.

The target of test [2] is T1, Human PD-1-His protein (Cat. …). As to the kind of experiment: SPR (Biacore), antibody captured on Protein A chip, PD-1 in flow. The source says: (§1) IgG was affinity captured by using a Protein A biosensor chip (Cat. #29127556, GE). Human PD-1 antigen (Cat. #10377H08H, Sino Biological) and Cyno PD-1 antigen (purchased from Sino Biological) flowed across the surface of the chip, and the binding and dissociation curves were obtained by real time detection of PD-1 antibody and antigen PD-1 reaction signals by a Biacore T200 instrument. After the dissociation of each experimental cycle was completed, the biosensor chip was washed and regenerated with 10 mM Glycine-HCl pH 1.5 buffer. The experimental buffer system was 1×HBS-EP buffer solution (Cat #BR-1001-88, GE). After the experiment, GE Biacore T200 Evaluation version 3.0 software was used to fit the data with a (1:1) Langmuir model, and the affinity value was obtained.
(In general: In SPR one partner is held on a chip, and binding of the other changes the refractive index at the surface.)

For test [3], the target named is T2, Human PD-1-IgG1Fc fusion protein (human).
T2 construct: also called PD-1-Fc; Hu PD-1-Fc
As to the kind of experiment: competition ELISA, PD-1-Fc coated, competitor biotin-labeled PD-L1. Here is the method:
(§2) CB buffer pH 9.6 (1.59 g Na₂CO₃ and 2.93 g NaHCO₃ dissolved in 1 L distilled water) was used to dilute PD-1-Fc to 1 μg/ml, which was added to the 96-well plates at a volume of 100 μl/well and allowed to stand at 4° C. for 16 h-20 h. PBS buffer was aspirated from the 96-well plates, and the plates were washed with PBST (pH 7.4 PBS containing 0.05% tween20) buffer once. 120 μl/well PB ST/1% milk was added and incubated at room temperature for 1 h for blocking. The blocking solution was removed and the plates were washed with PBST buffer once. 90 μl anti-PD-1 antibody to be tested diluted to appropriate concentration with the sample diluent (pH 7.4 PBS containing 5% BSA, 0.05% Tween20) was added and pre-incubated at 4° C. for 1 h. […] The reaction system was removed and the plates were washed with PBST 6 times. 100 μl/well Streptavidin-Peroxidase Polymer 1:400 diluted with PBST buffer was added and incubated with shaking at room temperature for 50 min. The plates were washed with PBST 6 times. 100 μl/well TMB was added and incubated at room temperature for 5-10 min. 100 μl/well 1 M H₂SO₄ was added to stop the reaction.

Test [4] has as its target T2, Human PD-1-IgG1Fc fusion protein. As to the kind of experiment: competition ELISA, PD-1-Fc coated, competitor biotin-labeled PD-L2. How it is done:
as §2

Test [5] has as its target T1, Human PD-1-His protein (Cat. …). The test can be described thus: SPR (Biacore T200), antibody captured on Protein A chip, antigen in flow, 1:1 Langmuir.
Excerpt: as §1

Test [6] addresses T3, Cyno PD-1 antigen (purchased from Sino Biological) (cynomolgus monkey (Cyno; simian), UniProt B0LAJ3 25-170).
T3 construct: Bought protein, construct not described; also called simian PD-1; not shown: Tag or carrier of the Sino Biological product (probably a His tag)
The test is described as above.
Excerpt: as §1

B1: Hu23-11.IgG4AA (antibody, V domains shown)
VH: EVQLVQSGAEVKKPGSSVKVSCKASGGTFSDYEMHWVRQAPGQGLEWMGLIDPETGGTVYNQKFKDRVTITADKSTSTAYMELSSLRSEDTAVYYCARERFSYYGSTSDWYFDVWGQGTTVTVSS
VL: DIVMTQTPLSLPVTPGEPASISCRSSQSLVHSTGNTYLEWYLQKPGQSPQLLIYKVSNRFSGVPDRFSGSGSGTDFTLKISRVEAEDVGVYYCFQGSHVPYTFGGGTKVEIKR
notes: Full-length IgG4-AA, kappa; also called Hu23LCDR1 (N28T)
As to B1, in test [1], the concentration giving a half-maximal response (EC50) was determined as 0.237 µg/mL and the “OD value MAX” value is 1.46 OD. Also, in test [2], the Kd came to 2.71 nM, the koff was 0.000114 s⁻¹ and the kon turned out to be 42200 M⁻¹ s⁻¹. This molecule also returned an IC50 in test [3] of 0.0924 µg/mL. The same molecule gave an IC50 in test [4] of 0.245 µg/mL. In test [5], this molecule registered a Kd of 1.86 nM, an off-rate constant (koff) of 0.000113 s⁻¹ and a kon of 60600 M⁻¹ s⁻¹. Also, in test [6], the Kd came out at 2.62 nM, the koff amounted to 0.000126 s⁻¹ and the kon stood at 47900 M⁻¹ s⁻¹.

B2: Hu32a-85.IgG4AA (antibody, V domains shown)
VH: EVQLVQSGAEVKKPGSSVKVSCKASDFTFTDYEIHWVKQAPGHGLEWIGLFDPETGGIVYNQKFKGKATLTADKSTSTAYMEFSSLRSEDTAVYYCTREGYNRDWYFDVWGQGTTVTVSS
VL: DIVMTQTPLSLPVTPGEPASISCRSSQSLVHSTGNTYLEWYLQKPGQSPQLLIYKVSNRFSGVPDRFSGSGSGTDFTLKISRVEAEDVGVYYCFQGSHVPYTFGGGTKVEIKR
notes: Full-length IgG4-AA, kappa
B2: in test [1], the EC50 was 0.136 µg/mL and the “OD value MAX” value worked out at 1.26 OD. Also, in test [2], the affinity, expressed as Kd, was 3.18 nM; the koff was 0.000315 s⁻¹; the kon turned out to be 99000 M⁻¹ s⁻¹. Besides, the IC50 in test [3] was 0.0786 µg/mL. The IC50 in test [4] amounted to 0.206 µg/mL. In test [5], this molecule showed a Kd of 3.25 nM, a koff of 0.000278 s⁻¹ and a kon of 85600 M⁻¹ s⁻¹. In test [6], this molecule displayed a Kd of 4.11 nM, a koff of 0.000475 s⁻¹ and a kon of 116000 M⁻¹ s⁻¹.
